{"source": "paper PMC3415792", "about": "(ACS chemical biology, 2011)", "binders": {"B1": {"name": "myc tagged form of soluble human CD40L (ligand)", "chain": "NMGDQNPQIAAHVISEASSKTTSVLQWAEKGYYTMSNNLVTLENGKQLTVKRQGLYYIYAQVTFCSNREASSQAPFIASLCLKSPGRFERILLRAANTHSSAKPCGQQSIHLGGVFELQPGASVFVNVTDPSQVSHGTGFTSFGLLKL", "modifications": "glycan (3 glycan chains in the model of the trimer)"}}, "key": {"[1]": {"molecular_target": "soluble human CD40 extracellular domain (human)", "test": "SPR"}, "crystal structure": {"molecular_target": "the molecule itself", "test": "crystal structure"}}}
{"binder": "B1", "values": [{"measurement": "Kd", "setting": "[1]", "value": "~13", "unit": "µM"}, {"measurement": "stoichiometry N", "setting": "crystal structure", "value": 3}]}
